Measured values published in patent publication US7927849B2, “Laccase enzyme and use thereof” (AB Enzymes OY, priority 2004, dated 2011).

Assays:
[1] = Specific activity on ABTS; type: biochemical; conditions: 25 mM succinate buffer pH 4.5, 25° C.
Experimental: The activity assay was carried out in accordance with the method developed by Niku-Paavola et al. (1988). The sample was diluted with 0.025 M succinate buffer, pH 4.5. […] The activity is expressed as nano katals.
Specific activities of the purified Thielavia laccase were determined towards different laccase substrates.

[2] = Denim bleaching at different temperatures (Launder Ometer); conditions: 200 nkat/g, 30 min, pH 6
Experimental: The test system and denim were as in Example 7, except that the conditions during the laccase and mediator treatment in Launder were 30 min, pH 6 and temperature 30-80° C. Also, the enzyme was inactivated by an alkaline treatment instead of raising the temperature in Launder as follows. After removing swatches from the containers they were soaked in warm water containing NaOH (pH 11.5) for 10 min and rinsed carefully with warm water. The swatches were dried half-dry in a tumbler and after that air dried. The bleaching effect was evaluated by measuring the colour as reflectance values as in Example 7.

[3] = Denim bleaching: laccase-mediator (100 nkat/g, 5 mg/g, 30 min, 60° C.) compared to sodium hypochlorite (15 min, 40° C.)
Experimental: Different types of demin were treated with a TaLcc1 laccase product from Trichoderma strain RF5597 and DeniLite II Base from Novozymes and the results obtained were compared to hypochlorite bleaching. All together 27 pieces of different kinds of denim (whole jeans), which had been previously washed with cellulase after desizing to different abrasion levels or had been only desized with ECOSTONE®A200 (60° C., 10 min), were collected for the test (Table 15). The jeans were made of Indigo dyed denim, except the English jeans contained Indigo dyed denim with sulphur bottom. Jeans were cut in such a way that pieces from the same pair of jeans could be used for all tests.
The jeans were made of Indigo dyed denim (right hand twill), except the English jeans contained Indigo dyed denim with sulphur bottom. The weights of the original (i.e. not desized) denim fabrics were typically higher than 475 g/m^2 (14 oz/yd^2). The weights of three 10 cm×10 cm pieces were measured after 24 hours incubation at room temperature (ca. 22° C. and at relative moisture ca. 64%).
The laccase treatments were performed with Electrolux's Wascator FOM 71 CLS washer extractor under optimal conditions for each enzyme, described in Table 16. Methyl syringate (Example 7) was used as a mediator. Laccase was inactivated after draining by raising the pH above 11 by NaOH (10 min, 60° C.) and rinsing for three times. The fabrics were dried in a tumbler.
The sodium hypochlorite bleaching was performed with Electrolux's Wascator FOM 71 CLS washer extractor using denim obtained from the same jeans as in laccase treatments under conditions described in Table 17. Sodium hydroxide was added before adding 25 ml/l of 10% sodium hypochlorite solution (Klorite Forte, Farmos Oy) to keep the pH above 10.5 during the treatment. After draining the bleach liquor, there was one 2 minutes rinsing step with the liquor ratio of 1:20 before dechlorinating with sodium thiosulphate. After dechlorinating the denim samples were rinsed 3 times for 2 minutes with the liquor ratio of 1:20. The fabrics were dried in a tumbler.
The bleaching effect was evaluated by measuring the colour as reflectance values as in Example 7. […] Different looks were obtained depending on the type of the denim and cellulase treatment used. “Sulphur-bottom type” denim was the most difficult to bleach.

[4] = all cellulase treated denim samples
[5] = sample B1: Basic Jeans, Ecostone P1250
[6] = sample E1: English jeans (sulphur bottom), desized only
[7] = sample E2: English jeans, Ecostone NP2000
[8] = sample E3: English jeans, Rocksoft NCE-EA
[9] = sample E4: English jeans, Rocksoft NCE-2X
[10] = sample E5: English jeans, Ecostone L900
[11] = sample E6: English jeans, Ecostone L900
[12] = sample E7: English jeans, Ecostone L900
[13] = sample L1: Lee Cooper jeans, desized only
[14] = sample L2: Lee Cooper jeans, Ecostone L
[15] = sample L3: Lee Cooper jeans, Biotouch C29
[16] = sample L4: Lee Cooper jeans, Ecostone L
[17] = sample L5: Lee Cooper jeans, Indiage Max L
[18] = sample L6: Lee Cooper jeans, Indiage Super L
[19] = sample L7: Lee Cooper jeans, Ecostone CXP500 Exper.
[20] = sample L8: Lee Cooper jeans, Ecostone CXP experimental
[21] = sample L9: Lee Cooper jeans, Ecostone N400
[22] = sample T1: Tincan jeans, desized only
[23] = sample T2: Tincan jeans, Ecostone N400
[24] = sample T3: Tincan jeans, Ecostone L300
[25] = sample T4: Tincan jeans, Denimax 991S
[26] = sample W1: Warric jeans, desized only
[27] = sample W2: Warric jeans, Ecostone P4500
[28] = sample W3: Warric jeans, Indiage Max G
[29] = sample W4: Warric jeans, Ecostone NP2000
[30] = sample W5: Warric jeans, Ecostone L900
[31] = sample W6: Warric jeans, Denabraide MBL 65 E

B1: TaLcc1: Recombinant Thielavia arenaria ALKO4197 laccase 1 (SEQ ID NO: 12) produced in Trichoderma reesei strains RF5597/RF5598 (protein)
chain: MKSWAAAVALMVGILSPHAAAAPPANPVQRDMLQVLEARQSGPTCNTPSNRACWTNGFDINTDYEVSTPNTGRTVAYQLTLTEKENWIGPDGVLKNVVMLVNDKIIGPTIRANWGDNIEVTVINNLKTNGTSMHWHGLRQLGNVFNDGANGVTECPIPPKGGRKTYKFRATQYGTSWYHSHFSAQYGNGVVGTIQIDGPASLPYDIDLGVFPLMDYYYRSADELVHFTQSNGAPPSDNVLFNGTARHPETGAGQWYNVTLTPGKRHRLRIINTSTDNHFQVSLVGHNMTVIATDMVPVNAFTVSSLFLAVGQRYDVTIDANSPVGNYWFNVTFGDGLCGSSNNKFPAAIFRYQGAPATLPTDQGLPVPNHMCLDNLNLTPVVTRSAPVNNFVKRPSNTLGVTLDIGGTPLFVWKVNGSAINVDWGKPILDYVMSGNTSYPVSDNIVQVDAVDQWTYWLIENDPTNPIVSLPHPMHLHGHDFLVLGRSPDELPSAGVRHIFDPAKDLPRLKGNNPVRRDVTMLPAGGWLLLAFKTDNPGAWLFHCHIAWHVSGGLSVDFLERPNDLRTQLNSNAKRADRDDFNRVCREWNAYWPTNPFPKIDSGLRHRFVEESEWMVR
modifications: Thielavia arenaria ALKO4197; (1)..(617) Deduced amino acid sequence of Thielavia arenaria ALKO4197 laccase 1 (Ta Lcc1)
Specific activity on ABTS [1]: 910 nkat/mg | Increase of L* ([2]; mediator 0 mg/g, 80° C.): 0.64 | L* after laccase treatment ([2]; mediator 0 mg/g, 80° C.): 30.27 | b* after laccase treatment ([2]; mediator 0 mg/g, 80° C.): −18.62 | Increase of L* ([2]; mediator 10 mg/g, 30° C.): 4.10 | L* after laccase treatment ([2]; mediator 10 mg/g, 30° C.): 33.68 | b* after laccase treatment ([2]; mediator 10 mg/g, 30° C.): −19.17 | Increase of L* ([2]; mediator 10 mg/g, 40° C.): 8.68 | L* after laccase treatment ([2]; mediator 10 mg/g, 40° C.): 37.49 | b* after laccase treatment ([2]; mediator 10 mg/g, 40° C.): −18.64 | Increase of L* ([2]; mediator 10 mg/g, 50° C.): 14.59 | L* after laccase treatment ([2]; mediator 10 mg/g, 50° C.): 42.99 | b* after laccase treatment ([2]; mediator 10 mg/g, 50° C.): −17.06 | Increase of L* ([2]; mediator 10 mg/g, 60° C.): 18.42 | L* after laccase treatment ([2]; mediator 10 mg/g, 60° C.): 47.56 | b* after laccase treatment ([2]; mediator 10 mg/g, 60° C.): −14.55 | Increase of L* ([2]; mediator 10 mg/g, 70° C.): 17.85 | L* after laccase treatment ([2]; mediator 10 mg/g, 70° C.): 46.94 | b* after laccase treatment ([2]; mediator 10 mg/g, 70° C.): −13.82 | Increase of L* ([2]; mediator 10 mg/g, 80° C.): 9.85 | L* after laccase treatment ([2]; mediator 10 mg/g, 80° C.): 39.24 | b* after laccase treatment ([2]; mediator 10 mg/g, 80° C.): −15.74 | bleaching better than DeniLite II Base [3, 4]: 55-200% | bleaching better than sodium hypochlorite [3, 4]: 60-115% | increase of L* better than DeniLite II Base ([3]; fabrics only desized): over 100% | increase of L* compared with sodium hypochlorite ([3]; fabrics only desized): equal or better | Increase of L* [3, 5]: 17.71 | L* after treatment [3, 5]: 47.19 | b* after treatment [3, 5]: −12.75 | Increase of L* [3, 6]: 5.24 | L* after treatment [3, 6]: 22.71 | b* after treatment [3, 6]: −13.97 | Increase of L* [3, 7]: 10.51 | L* after treatment [3, 7]: 35.99 | b* after treatment [3, 7]: −14.08 | Increase of L* [3, 8]: 11.26 | L* after treatment [3, 8]: 36.52 | b* after treatment [3, 8]: −14.46 | Increase of L* [3, 9]: 11.75 | L* after treatment [3, 9]: 38.79 | b* after treatment [3, 9]: −13.94 | Increase of L* [3, 10]: 12.34 | L* after treatment [3, 10]: 37.53 | b* after treatment [3, 10]: −14.03 | Increase of L* [3, 11]: 11.63 | L* after treatment [3, 11]: 34.17 | b* after treatment [3, 11]: −14.79 | Increase of L* [3, 12]: 13.16 | L* after treatment [3, 12]: 36.00 | b* after treatment [3, 12]: −14.95 | Increase of L* [3, 13]: 12.92 | L* after treatment [3, 13]: 33.13 | b* after treatment [3, 13]: −19.41 | Increase of L* [3, 14]: 19.08 | L* after treatment [3, 14]: 50.89 | b* after treatment [3, 14]: −13.17 | Increase of L* [3, 15]: 19.21 | L* after treatment [3, 15]: 47.66 | b* after treatment [3, 15]: −14.82 | Increase of L* [3, 16]: 18.97 | L* after treatment [3, 16]: 48.39 | b* after treatment [3, 16]: −13.83 | Increase of L* [3, 17]: 19.24 | L* after treatment [3, 17]: 47.73 | b* after treatment [3, 17]: −14.28 | Increase of L* [3, 18]: 17.17 | L* after treatment [3, 18]: 46.71 | b* after treatment [3, 18]: −14.68 | Increase of L* [3, 19]: 15.75 | L* after treatment [3, 19]: 42.95 | b* after treatment [3, 19]: −16.23 | Increase of L* [3, 20]: 17.27 | L* after treatment [3, 20]: 46.73 | b* after treatment [3, 20]: −14.86 | Increase of L* [3, 21]: 16.22 | L* after treatment [3, 21]: 45.02 | b* after treatment [3, 21]: −14.91 | Increase of L* [3, 22]: 9.80 | L* after treatment [3, 22]: 34.82 | b* after treatment [3, 22]: −16.36 | Increase of L* [3, 23]: 14.50 | L* after treatment [3, 23]: 42.70 | b* after treatment [3, 23]: −14.60 | Increase of L* [3, 24]: 18.01 | L* after treatment [3, 24]: 47.09 | b* after treatment [3, 24]: −14.04 | Increase of L* [3, 25]: 16.37 | L* after treatment [3, 25]: 43.53 | b* after treatment [3, 25]: −15.18 | Increase of L* [3, 26]: 10.51 | L* after treatment [3, 26]: 28.54 | b* after treatment [3, 26]: −17.55 | Increase of L* [3, 27]: 16.04 | L* after treatment [3, 27]: 42.16 | b* after treatment [3, 27]: −14.48 | Increase of L* [3, 28]: 15.53 | L* after treatment [3, 28]: 44.08 | b* after treatment [3, 28]: −13.66 | Increase of L* [3, 29]: 13.32 | L* after treatment [3, 29]: 39.54 | b* after treatment [3, 29]: −14.72 | Increase of L* [3, 30]: 16.52 | L* after treatment [3, 30]: 40.49 | b* after treatment [3, 30]: −15.38 | Increase of L* [3, 31]: 15.57 | L* after treatment [3, 31]: 39.58 | b* after treatment [3, 31]: −15.62
